According to patent publication US20240002500A1 (GUANGDONG FAPON BIOPHARMA, published 2024):
Residue numbers refer to the chain shown, from its start. Values belong to the binder of their own block, whether it stands above or below them.

Key:
[1] = target: T1, hTIGIT-hFc (human, UniProt Q495A1 22-141); experiment: FACS blocking on CHO-hCD112 cells; span of the fitted curve, unit from the y axis
T1 construct: also called antigen protein hTIGIT-hFc; human TIGIT recombinant protein carrying a human Fc tag; not shown: human Fc tag
T1 sequence (looked up): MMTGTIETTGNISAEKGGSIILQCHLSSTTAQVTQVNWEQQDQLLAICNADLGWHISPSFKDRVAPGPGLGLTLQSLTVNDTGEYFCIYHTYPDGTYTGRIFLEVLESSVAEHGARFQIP
Experimental: The CHO-engineered cell CHO-hCD112 cells recombinantly expressing full-length human CD112 were counted; centrifugated at 300 g for 5 min; resuspended with an FCM buffer; and cell density was adjusted to 4E+06 cell/mL for later use. […] According to an experimental design, in each well, 50 μL of the antigen protein and 50 μL of the cell (the volume of each cell added into a 96-well V-shaped plate being 2E+05 cell/well) were respectively added in the 96-well V-shaped plate; and incubation was performed in dark on ice for 30 min. Centrifugation (300 g/5 min) was performed; supernatant was discarded; 200 μL of the FCM buffer was added for washing once; centrifugation (300 g/5 min) was performed; and the supernatant was discarded. The antibody was added to the 96-well V-shaped plate (in 100 μL/well); and incubation was performed in dark on ice for 30 min. Centrifugation (300 g/5 min) was performed; supernatant was discarded; 200 μL of the FCM buffer was added for washing once; centrifugation (300 g/5 min) was performed; and the supernatant was discarded. Secondary antibodies (APC anti-human IgG Fc, 1:500 dilution) were added to the 96-well V-shaped plate (in 100 μL/well); and incubation was performed in dark on ice for 30 min. Centrifugation (300 g/5 min) was performed; supernatant was discarded; 200 μL of the FCM buffer was added for washing once; centrifugation (300 g/5 min) was performed; and the supernatant was discarded. 100 μL of the 1×PBS was added for resuspending, and on-machine detection was performed.

[2] = target: T2, human Tigit extracellular domain recombinant protein hTigit-his (Acrobiosystem, Cat.TIT-H2H3) (human, UniProt Q495A1 22-141); experiment: BLI epitope binning (ForteBIO QKe), hTigit-his on anti-Penta-HIS sensor; competitor R0223
T2 construct: extracellular domain; Bought; not shown: his tag
T2 sequence (looked up): T1 sequence (looked up)
Experimental: Epitope competition analysis was performed on an anti-human TIGIT antibody with an MD ForteBIO QKe platform. An experimental method included: a human Tigit extracellular domain recombinant protein hTigit-his (Acrobiosystem, Cat.TIT-H2H3, lot-1336-76GF1-F9) carrying a his tag was diluted with an equilibration buffer (1×PBS+0.02% Tween 20), until the final concentration was 1.5 μg/ml. The anti-human Tigit antibody was diluted with the equilibration buffer (1×PBS+0.02% Tween 20), the final concentration being 5 μg/ml. After an anti-Penta-HIS biosensor (ForteBIO, Cat. 18-5122) was fully hydrated, first the hTigit-his recombinant protein was solidified for 180 seconds, then equilibrated for 30 seconds, and bound to the first anti-human Tigit antibody for 180 seconds, then equilibrated for 30 seconds, and then bound to the second anti-human Tigit antibody, binding time being 300 seconds. The whole reaction was performed at 25° C. and 1000 rpm; and finally, Octet analysis software was used to perform epitope binning analysis.

[3] = target: T3, full-length human TIGIT on cells (human, UniProt Q495A1 22-244); experiment: FACS titration on PBMC of healthy people (natural TIGIT); table under the plot, unit taken from the x axis Log[µg/mL]
T3 construct: whole, on cells; The same protein is used for CHO-hTIGIT, PBMC and NK92-hTIGIT; the cells are named under assay; also called CHO-hTIGIT; hTIGIT
T3 sequence (looked up): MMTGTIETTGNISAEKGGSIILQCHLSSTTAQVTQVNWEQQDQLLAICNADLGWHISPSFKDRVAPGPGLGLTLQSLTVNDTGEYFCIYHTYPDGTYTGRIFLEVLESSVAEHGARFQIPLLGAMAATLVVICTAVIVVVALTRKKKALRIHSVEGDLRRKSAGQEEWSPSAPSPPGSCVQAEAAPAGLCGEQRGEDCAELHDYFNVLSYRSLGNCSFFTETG
Experimental: (§1) In order to verify that the prepared anti-human TIGIT antibody may effectively bind to naturally expressed TIGIT, the following experiments were specifically performed. PBMC cells in healthy people to be detected were counted, centrifuged at 300 g for 5 min, resuspended with an FCM buffer; and cell density was adjusted to 4E+06 cell/mL for later use. Samples to be detected (including a positive control antibody and a mouse monoclonal antibody) were diluted with the FCM buffer to 20 μg/mL, and then the FCM buffer was used to perform 3× serial dilutions of 12 concentration points; and the isotype control antibody was diluted with the FCM buffer to 20 μg/mL. According to an experimental design, in each well, 50 μL of the antibody and 50 μL of the cell (the volume of each cell added into a 96-well V-shaped plate being 2E+05 cell/well) were respectively added in the 96-well V-shaped plate; and incubation was performed in dark on ice for 30 min. Centrifugation (300 g/5 min) was performed; supernatant was discarded; 200 μL of the FCM buffer was added for washing once; centrifugation (300 g/5 min) was performed; and the supernatant was discarded. […] Centrifugation (300 g/5 min) was performed; supernatant was discarded; 200 μL of the FCM buffer was added for washing once; centrifugation (300 g/5 min) was performed; and the supernatant was discarded. […]

[4] = target: T3, full-length human TIGIT on cells; experiment: FACS titration on PBMC of healthy people (natural TIGIT), PE goat anti-mouse IgG; number as printed beside the name, the marker of the legend lies on the leftmost curve
Experimental: as §1

Span [1]: 212 MFI-APC | epitope binning signal (name and unit not given) [2]: 0.0443
B1: Tigit-5 mouse monoclonal antibody (antibody, V domains shown)
VH: QVQLQQPGAELVRPGASVKLSCKASGYSFTSYWMNWVKQRPGQGLEWIGMIRPSDSETRLNQMFKDKATLTVDKSSSTAYMQLSSPTSDDSAVYYCAGIHDYGHGAYWGQGTLVTVSA
VL: DIQMIQSPASLSVSVGETVTITCRASENIYSNLAWYQQKQGKSPQLLVYAASHLPDGVPSRFSGSGSGTQYSLKINSLQSEDFGSYYCQHFWGTPRTFGGGTKLEIKR
notes: Mouse monoclonal antibody from hybridoma

Span [1]: 327 MFI-APC | epitope binning signal (name and unit not given) [2]: -0.0018 | EC50 [3]: 0.0217 µg/mL
B3: 3Tigit-29 mouse monoclonal antibody (antibody, V domains shown)
VH: EVQLQQSGPELVKPGASVKISCKASGYTFTDYNMHWVKQSLGKSLEWIGYVNSFNGNTGYSQKFKSKVTLTVDRSSRTAYMDLRSLTSEDSAVFYCARSSRGGFAYWGQGTLVTVSA
VL: QIVLTQSPAIMSASPGEKVTMTCSASSSVSYMHWYQQKSGTSPKRWIYDTSKLASGVPARFSGSVSGTSYSLTISSMEAEDAATYYCQQWSSNSLTFGAGTKLELKR
notes: as for B1

EC50 [4]: 0.179 nM
B5: 14Tigit-1-1 mouse monoclonal antibody (antibody, V domains shown)
VH: DVQLQESGPGLVKPSQSLSLTCTVTGYSITSDYAWNWIRQFPGNKLEWMGYISYSGSTRSNPSLKSRISITRDTSKNQFFLQLNSMTAEDTATYYCGGWEVRNYYAMDYWGQGTSVTVSS
VL: DIVMTQSHKFMSTSVGDRVSITCKASQHVSTAVAWYQQKPGQSPKLLIYSASYRYTGVPDRFTGSGSGTDFTFTISSVQAEDLAVYYCQQHYNTPWTFGGGTKLEIKR
notes: as for B1

The remaining lines, values behind:

B2: 3Tigit-16 mouse monoclonal antibody (antibody, V domains shown)
VH: EVQLQQSGPELVKPGASVKMSCKASGFTFTDYFMDWVKQSRGASFEWIGRLNPNNGRTSYNQKFKGKATLTVDKSSSTAYMELNSLTSEDSAVYYCARGDLGRWYFDVWGAGTTVTVSS
VL: B3 VL with A59T, V65G, T84S, Y86F
notes: as for B1
Span [1]: 215 MFI-APC | epitope binning signal (name and unit not given) [2]: 0.008 | EC50 [3]: 0.0247 µg/mL

B4: 3Tigit-12 mouse monoclonal antibody (antibody, V domains shown)
VH: QVQLQQSGAELVRPGTSVKMSCKAAGYTFTNYWIGWVKQRPGHGLEWIGDIYPGGGYTNYDEKFKGKATLTADTSSRTAYMQLSSLTSEDSAIYHCVNGGYGSTYGYFDVWGAGTTVTVSS
VL: DIVMSQSPSSLPVSVGEKVTMSCKSSQSLLFSSDQKNYLAWYQQKPGQSPKLLIYWASTRESGVPDRLTGSGSGTDFTLTISSVKAEDLAVYYCQQYHKYPFTFGGGTKLEIKR
notes: as for B1
Span [1]: 278 MFI-APC | epitope binning signal (name and unit not given) [2]: 0.01
